Reference: the supplement of paper PMC7125110
± gives the standard error. This sample holds only a part of the variants without activity.

B1: glmS ribozyme (parent)
chain: AUAAAAGCGCCAGAACUACAGAAAUGUAGUUGACGAGGAGGAGGUUUAUCGAAUUUUCGGCGGAUGCCUCCAAA

Tests used:
Details in all cases: with glucosamine-6-phosphate
glucosamine-6-phosphate [1] = variants of: B1; experiment: self-cleavage kobs at 640 uM GlcN6P; higher = faster cleavage; RNA array
In short: (§1)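 Barcoded glmS ribozyme variants on sequenced MiSeq chips were transcribed in situ by E. coli RNA polymerase and tracked through a hybridised Cy3 probe at 37 °C. Glucosamine-6-phosphate (40 μM to 10 mM) in HEPES/KCl/Mg(OAc)2 buffer was flowed in, and tiles were imaged over ~14 h. Signals were normalised to baseline and to non-cleaving reference variants; per-tile medians were fit to one- or two-exponential decays to give kobs. kcat and KM came from weighted Michaelis–Menten fits across concentrations.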

glucosamine-6-phosphate [2] = variants of: B1; experiment: self-cleavage kobs at 2500 uM GlcN6P; higher = faster cleavage; RNA array
In short: as §1

glucosamine-6-phosphate [3] = variants of: B1; experiment: self-cleavage kobs at 10000 uM GlcN6P; higher = faster cleavage; RNA array
In short: as §1

Variant	self-cleavage kobs at 640 uM GlcN6P (glucosamine-6-phosphate [1]) [s⁻¹]	self-cleavage kobs at 2500 uM GlcN6P (glucosamine-6-phosphate [2]) [s⁻¹]	self-cleavage kobs at 10000 uM GlcN6P (glucosamine-6-phosphate [3]) [s⁻¹]
G38U U45G G51A	< 1e-05	< 1e-05	–
G35U U47G A52G C70A	9.25e-05 ± 3.2e-05	–	–
G37U C70G C71A	5.1e-05 ± 1.4e-05	–	–
A39C A42U G62C A64U	< 1e-05	–	–
G32U A33U G35U A36C C50U	< 1e-05	–	–
G35A C50G C68U C70G	0.000738 ± 0.00024	0.000111 ± 4.4e-05	–
G38U U69A	0.000186 ± 9e-05	–	–
A39G G41A U49C	< 1e-05	–	–
G32A U69A C70G	4.23e-05 ± 1.9e-05	–	–
G32U G41U G60U C68A	< 1e-05	–	–
U31C C34A G59U	< 1e-05	< 1e-05	–
U31C G44A C50A	< 1e-05	–	–
A36G A53U C68A C71G	8.35e-05 ± 2e-05	–	–
A36U G44A G62A C71G	< 1e-05	< 1e-05	–
C34A G43U U55G U57G C61A	< 1e-05	–	–
A33G G43U C70G	< 1e-05	–	–
A33C U45G U55C	< 1e-05	–	–
A36U G51U U56G G59A G66A	< 1e-05	–	–
U31C A53G U65G	0.000195 ± 3.6e-05	0.000454 ± 7.6e-05	0.000519 ± 9.8e-05
A36C G40C	< 1e-05	< 1e-05	< 1e-05
G38A G60A	< 1e-05	< 1e-05	–
A33C C34G A53C U57A G66C	< 1e-05	–	–
U30G U49C	< 1e-05	< 1e-05	–
G38C G60C U65G	< 1e-05	–	–

Variant	self-cleavage kobs at 640 uM GlcN6P (glucosamine-6-phosphate [1]) [s⁻¹]	self-cleavage kobs at 2500 uM GlcN6P (glucosamine-6-phosphate [2]) [s⁻¹]	self-cleavage kobs at 10000 uM GlcN6P (glucosamine-6-phosphate [3]) [s⁻¹]
G32A A36U G62U C70G	0.000218 ± 8.5e-05	–	–
U30G U31C A39U	0.000202 ± 6.1e-05	–	0.00122 ± 0.00026
U30G C61U C71G	< 1e-05	–	–
A33U U46C G63A	< 1e-05	< 1e-05	–
U31G G51A	< 1e-05	–	–
A36U G40U A42G	< 1e-05	–	–
G40A G41C A42C C70U	< 1e-05	–	–
G40A A52G C71A	0.000146 ± 2.8e-05	0.000203 ± 7.7e-05	–
G32U G35U G40A U55A	< 1e-05	–	–
A33U G41C A52C A53U A64G U65G C70G	< 1e-05	–	–
U31A U69C C71G	8.22e-05 ± 1.8e-05	6.01e-05 ± 1.7e-05	3.9e-05 ± 1.6e-05
A39G A48U U54G	8.65e-05 ± 1.9e-05	0.000287 ± 7.3e-05	–
G35A G51A U54A G63U	< 1e-05	–	–
G40C A42C A48C A52U	< 1e-05	–	< 1e-05
C34G G63A C67A	< 1e-05	< 1e-05	–
C34A G59U G60A G63U	< 1e-05	–	–
U31G C58A G60C	< 1e-05	< 1e-05	–
A33U C34G G44A G51A	< 1e-05	< 1e-05	–
G38U C58U C67U C70U C71A	9.38e-05 ± 3.9e-05	–	–
G32C A33G G35A C61A	< 1e-05	–	–
G35C G37C A39C G63C	< 1e-05	< 1e-05	–
U31A G66U C70U	0.00031 ± 6.9e-05	0.000329 ± 6.7e-05	–
A33C U45C U56G G62A U65C	< 1e-05	–	–
A39G G60U C67G	< 1e-05	< 1e-05	< 1e-05

Variant	self-cleavage kobs at 640 uM GlcN6P (glucosamine-6-phosphate [1]) [s⁻¹]	self-cleavage kobs at 2500 uM GlcN6P (glucosamine-6-phosphate [2]) [s⁻¹]	self-cleavage kobs at 10000 uM GlcN6P (glucosamine-6-phosphate [3]) [s⁻¹]
A36C A48U U54G G60U G63U A64G	< 1e-05	–	–
C34U A36U G41C A53G	< 1e-05	–	–
A33G G59A	< 1e-05	–	< 1e-05
G32C G51C	< 1e-05	< 1e-05	–
G32C G35A A36G	< 1e-05	–	–
G38U G44C U56C	< 1e-05	< 1e-05	–
C34A G41C C70U	< 1e-05	–	–
G32A G51U C68G	0.000156 ± 5.8e-05	–	–
A36C U69A	6.08e-05 ± 1.6e-05	0.000182 ± 4.6e-05	–
G35U A39G G59U	< 1e-05	–	–
A36C G38C G60C U65A	< 1e-05	–	–
U31A C50G C61G	0.000119 ± 4.7e-05	0.000103 ± 3.8e-05	–
U31C C67G C68G	5.49e-05 ± 1.6e-05	–	–
G32A A39C G59A C67A	< 1e-05	< 1e-05	–
A36G G38U C68G	9.46e-05 ± 3.2e-05	–	3.1e-05 ± 1.5e-05
A36C G51U A53C	< 1e-05	< 1e-05	< 1e-05
G32U A33U C34A A36C	< 1e-05	< 1e-05	–
U30G U49A G66C	< 1e-05	–	–
G32A C50G	6.29e-05 ± 2.1e-05	–	2.9e-05 ± 1.4e-05
A33U A36C U45C	< 1e-05	–	–
G37U G41A G63U A64G	< 1e-05	–	–
G32C G63U U69G	0.00126 ± 0.00029	–	–
